Bridge positions count the residues as written; N and C are the ends. Peptide text beside a SMILES is read from it.
Assays:
[1] = molecular target: T1, DD(E) (Homo sapiens, UniProt P02671+P02675+P02679); assay: dissociation constant against fibrin-derived polypeptide DD(E); type: binding; conditions: read-out: Kd DD(E)
T1 construct: host or cells: purchased fibrinogen clotted with thrombin, digested with plasmin, then purified by ammonium sulfate cuts and Sephacryl S200
Experimental: The soluble fibrin-derived polypeptide DD(E) was prepared following a modification of a published method (Moskoitz and Budzynksi, Biochemistry, 33: 12937-12944 (1994) and references therein). Fibrinogen containing a Factor XIII trace impurity (1 g, Grade L; purchased from American Diagnostica) was dissolved in TBS buffer and dialyzed overnight against TBS containing 5 mM citrate. The fibrinogen concentration was adjusted to 3.0 mg/ml and CaCl2 was added to a concentration of 10 mM. Clotting of the fibrinogen was initiated by the addition of thrombin to 0.5 U/ml and the clot was incubated for 3 hours at 37° C. The clot was cut up with a spatula to release water and to concentrate the clot. The clot pieces were washed twice with TBS.Ca buffer (TBS containing 2 mM CaCl2) and were centrifuged at 4,000×g to compact the clots between washes. The clot material was resuspended in 250 ml TBS containing 25 mM CaCl2 and 2 K.I.U. plasmin per mg fibrin. The clots were digested overnight at 20° C. Undigested clot was removed by pipette, and the supernatant was shaken with 10 ml of Lysine Sepharose (Pharmacia) for 30 minutes and filtered to remove the resin. Aprotinin was added to the filtrate to a concentration of 500 U/μL. Ammonium Sulfate was added to 30% saturation and the precipitated protein was removed by centrifugation. More ammonium sulfate was added to the supernatant to a final concentration of 50% saturation, and the precipitated protein was concentrated by centrifugation. The pellets, containing DD(E), were resuspended in a small volume of buffer (50 mM Tris, 150 mM NaCl, 2 mM CaCl2) (<10 ml) and chromatographed on a Sephacryl S200 (Pharmacia) size exclusion column (5×100 cm) in the same buffer. Fractions of protein eluted from the column were assayed by SDS-PAGE for DD(E). DD(E) contains subunits of 55 kD (Fragment E) and 190 kD (Fragment DD). […]
Dissociation constants were determined against DD(E) as described above.

[2] = molecular target: T2, dried fibrin (Homo sapiens, UniProt P02671+P02675+P02679); assay: dissociation constant against dried fibrin (free peptide by mass spectrometry); type: binding
T2 construct: Thrombin cleavage at the Arg16-Arg17 bond in the Ax chains and at the Arg14-Gly15 bond on the BP chains releases fibrinopeptides A and B; host or cells: fibrinogen solution clotted with thrombin in 96-well plates and dried at 37 C
T2 sequence (P02671 36-629 limits assumed): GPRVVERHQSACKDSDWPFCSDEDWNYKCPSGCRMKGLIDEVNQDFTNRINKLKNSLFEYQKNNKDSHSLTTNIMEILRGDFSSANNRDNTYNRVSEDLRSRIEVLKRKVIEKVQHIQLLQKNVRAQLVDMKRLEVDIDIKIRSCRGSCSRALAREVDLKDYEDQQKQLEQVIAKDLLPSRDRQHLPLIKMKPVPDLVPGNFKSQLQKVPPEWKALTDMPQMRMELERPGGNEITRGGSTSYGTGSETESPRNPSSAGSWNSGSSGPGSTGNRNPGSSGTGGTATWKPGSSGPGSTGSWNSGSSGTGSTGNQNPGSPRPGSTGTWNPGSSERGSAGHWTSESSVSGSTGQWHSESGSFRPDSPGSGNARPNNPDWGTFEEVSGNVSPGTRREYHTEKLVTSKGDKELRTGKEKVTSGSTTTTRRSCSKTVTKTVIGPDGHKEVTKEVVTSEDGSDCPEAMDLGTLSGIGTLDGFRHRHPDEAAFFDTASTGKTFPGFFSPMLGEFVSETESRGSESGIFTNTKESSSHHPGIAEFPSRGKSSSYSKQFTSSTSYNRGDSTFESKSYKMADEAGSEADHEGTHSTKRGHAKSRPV
T2 sequence (P02675 45-491 limits assumed): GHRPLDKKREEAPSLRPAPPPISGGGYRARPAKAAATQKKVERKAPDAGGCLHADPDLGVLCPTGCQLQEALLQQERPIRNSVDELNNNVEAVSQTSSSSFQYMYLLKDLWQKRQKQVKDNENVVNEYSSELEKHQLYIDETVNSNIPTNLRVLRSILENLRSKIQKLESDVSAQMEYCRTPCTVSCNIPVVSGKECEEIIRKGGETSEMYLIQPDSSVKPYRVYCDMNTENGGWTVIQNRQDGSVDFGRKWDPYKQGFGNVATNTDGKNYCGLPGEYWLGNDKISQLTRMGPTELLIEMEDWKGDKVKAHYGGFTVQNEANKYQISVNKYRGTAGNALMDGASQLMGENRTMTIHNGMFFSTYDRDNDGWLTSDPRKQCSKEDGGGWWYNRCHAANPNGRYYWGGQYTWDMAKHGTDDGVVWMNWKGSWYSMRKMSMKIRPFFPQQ
T2 sequence (P02679 27-437 isoform P02679-2 limits assumed): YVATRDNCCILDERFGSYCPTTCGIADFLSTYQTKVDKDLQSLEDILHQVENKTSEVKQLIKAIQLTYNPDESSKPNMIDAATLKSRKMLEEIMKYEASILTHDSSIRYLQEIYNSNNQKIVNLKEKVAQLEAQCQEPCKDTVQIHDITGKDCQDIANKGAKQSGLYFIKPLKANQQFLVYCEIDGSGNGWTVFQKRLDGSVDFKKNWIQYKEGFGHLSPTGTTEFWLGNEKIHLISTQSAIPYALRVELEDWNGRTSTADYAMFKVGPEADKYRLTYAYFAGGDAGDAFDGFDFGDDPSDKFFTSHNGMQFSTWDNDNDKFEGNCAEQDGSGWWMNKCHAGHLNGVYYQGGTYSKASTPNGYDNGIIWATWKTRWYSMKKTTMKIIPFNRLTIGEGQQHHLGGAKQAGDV
Experimental: A fibrinogen solution was prepared at 10 mg/ml (or at twice the concentration of fibrin desired) in TBS buffer (50 mM Tris, 150 mM NaCl, pH 7.4). The fibrinogen solution typically contained ˜17 mM citrate. Subsequently, a solution was prepared containing 2 U/ml thrombin, 20 mM CaCl2, and 5 mM ε-aminocaproic acid in TBS. The fibrinogen solution and thrombin solution were mixed 1:1 in the wells of a 96-well plate, aliquoting 50 μL of each solution in each well (total volume=100 μL). The plates were evaporated to dryness overnight at 37° C. The polypeptide to be tested, dissolved in water, was added to each well at concentrations between 1-200 μM. A typical binding assay contained 24 points at concentrations of 2, 4, 6, 8, 10, 12, 14, 17, 20, 23, 26, 30, 35, 40, 45, 50, 60, 70, 80, 100, 125, 150, 175, and 200 μM. The plate containing the peptide and (rehydrated) dried fibrin was covered and incubated at 37° C. on a shaker table for 2 hours.
The supernatant in each well was removed by pipette and the concentration of the polypeptide was measured by mass spectrometry. The ion current detected at the mass of the peptide was monitored after injection of a sample into the mass spectrometer. The area-under-the-peak was quantitated and compared to standards of known concentration. The concentration of peptide in the supernatant is equal to the concentration of free peptide. The concentration of bound peptide was determined by subtracting the concentration of free peptide from the total (starting) concentration. A plot of [Bound Peptide] vs. [Free Peptide] was used to determine the Kd and the concentration of bound peptide at saturation. The curve was fit to the equation: [Bound]=N×[Free]/(Kd+[Free]) where [Bound] is the concentration of bound polypeptide, [Free] is the concentration of free polypeptide, Kd is the dissociation constant (equal to the reciprocal of Ka) and N is the concentration of binding sites. The number of binding sites per fibrin molecule was equal to the lo concentration of binding sites determined by the [Bound Polypeptide] vs. [Free Polypeptide] plot, divided by the concentration of fibrin (15 μM) used in the assay.

[3] = molecular target: T3, fibrin (Homo sapiens, UniProt P02671+P02675+P02679); assay: dried fibrin plate ELISA of phage isolates; type: binding; conditions: phage isolates from TN7 library; symbols not defined
T3 construct: Thrombin cleavage at the Arg16-Arg17 bond in the Ax chains and at the Arg14-Gly15 bond on the BP chains releases fibrinopeptides A and B; host or cells: fibrinogen solution clotted with thrombin in 96-well plates and dried at 37 C
T3 sequence (P02671 36-629 limits assumed): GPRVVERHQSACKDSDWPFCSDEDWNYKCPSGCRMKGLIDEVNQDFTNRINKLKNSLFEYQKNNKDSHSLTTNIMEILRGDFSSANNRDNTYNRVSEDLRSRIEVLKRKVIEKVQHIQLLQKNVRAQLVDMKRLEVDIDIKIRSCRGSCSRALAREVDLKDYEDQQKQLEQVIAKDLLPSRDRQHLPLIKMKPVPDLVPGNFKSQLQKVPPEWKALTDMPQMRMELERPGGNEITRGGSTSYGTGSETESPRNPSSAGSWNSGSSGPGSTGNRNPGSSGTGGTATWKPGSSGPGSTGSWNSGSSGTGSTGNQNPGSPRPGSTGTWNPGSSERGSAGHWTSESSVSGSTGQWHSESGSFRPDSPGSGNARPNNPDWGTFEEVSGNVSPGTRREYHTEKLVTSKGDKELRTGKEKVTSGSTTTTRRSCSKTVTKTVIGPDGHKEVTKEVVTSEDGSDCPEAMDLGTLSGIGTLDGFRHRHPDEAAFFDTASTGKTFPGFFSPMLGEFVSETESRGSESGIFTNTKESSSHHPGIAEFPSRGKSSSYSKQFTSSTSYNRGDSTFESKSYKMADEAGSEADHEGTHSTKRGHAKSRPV
T3 sequence (P02675 45-491 limits assumed): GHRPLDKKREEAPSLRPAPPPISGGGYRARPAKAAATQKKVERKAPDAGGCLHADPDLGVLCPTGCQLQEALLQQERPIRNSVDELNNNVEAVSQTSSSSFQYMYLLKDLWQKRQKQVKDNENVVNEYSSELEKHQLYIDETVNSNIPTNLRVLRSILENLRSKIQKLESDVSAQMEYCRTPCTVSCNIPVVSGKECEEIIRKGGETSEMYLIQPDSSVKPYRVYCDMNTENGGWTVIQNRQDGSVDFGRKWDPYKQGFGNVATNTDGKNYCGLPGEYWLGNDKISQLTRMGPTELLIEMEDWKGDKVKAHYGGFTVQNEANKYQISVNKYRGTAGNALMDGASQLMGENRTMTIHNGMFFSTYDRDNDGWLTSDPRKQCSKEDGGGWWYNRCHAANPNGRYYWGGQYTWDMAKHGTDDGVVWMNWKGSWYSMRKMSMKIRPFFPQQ
T3 sequence (P02679 27-437 isoform P02679-2 limits assumed): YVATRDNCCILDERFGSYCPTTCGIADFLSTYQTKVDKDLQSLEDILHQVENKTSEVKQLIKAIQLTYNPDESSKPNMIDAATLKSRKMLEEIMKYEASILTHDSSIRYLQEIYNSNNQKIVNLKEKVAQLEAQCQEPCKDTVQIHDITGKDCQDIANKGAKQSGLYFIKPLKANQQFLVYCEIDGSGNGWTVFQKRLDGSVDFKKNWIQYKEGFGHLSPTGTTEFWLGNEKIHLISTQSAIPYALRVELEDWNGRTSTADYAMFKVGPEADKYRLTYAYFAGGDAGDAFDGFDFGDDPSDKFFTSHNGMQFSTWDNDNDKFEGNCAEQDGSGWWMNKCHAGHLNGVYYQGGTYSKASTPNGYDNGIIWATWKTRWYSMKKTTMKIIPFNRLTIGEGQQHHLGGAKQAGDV
Experimental: For screening libraries to isolate binding moieties for fibrin, two fibrin targets, i.e., synthetic fibrin clots and then a soluble fibrin fragment, DD(E), were prepared. To prepare fibrin for screening, dilute fibrin clots were formed in the wells of a 96-well plate, dried down to a thin layer, and then rehydrated prior to library screening. In a typical procedure, a 0.15 mg/ml fibrinogen solution was prepared in TBS buffer (50 mM Tris, 150 mM NaCl, pH 7.4). A solution containing 2 U/ml thrombin, 10 mM CaCl2, and 5 mM ε-aminocaproic acid in TBS was prepared. The fibrinogen solution and thrombin solution were mixed 1:1 in the wells of a 96-well plate, aliquoting 25 μL of each solution in each well (total volume=50 μL). The plates were evaporated to dryness by incubating them at 37° C. overnight. Just before a phage library was added to the dried fibrin target, the fibrin wells were washed three times for 10 minutes with phage blocking buffer (TBS containing 2 mM CaCl2, 0.1% Tween-20, and 0.1% human serum albumin (HSA)).
After five rounds of selection, the eluted phage were propagated and a portion plated to isolate phage plaques arising from individual clones. Ninety such clones were selected randomly, propagated, and tested individually for binding to fibrin in a dried fibrin plate assay. Dried fibrin plates were prepared as described above for the library screening. Phage samples (˜10^9 phage each) were incubated in the dried fibrin plate wells in binding buffer (50 mM Tris, 150 mM NaCl, 2 mM CaCl2, 0.05% Tween-20) containing 0.1% HSA. After 1 hour, the plates were washed 5 times with binding buffer. Anti-M13 antibody conjugated to horseradish peroxidase (Pharmacia) was added at 1/5000 dilution in binding buffer to the wells and incubated with the fibrin for 1 hour. The wells were again washed 5 times with binding buffer and the presence of the antibody/phage/fibrin complex was measured with HRP calorimetric reagents (3,3′,5,5′-tetrarnethylbenzidine (TMB) and H2O2). A high absorbance at 595 nm (due to oxidized TMB) was indicative of a tight phage/fibrin interaction, and phage clones corresponding to those wells were identified as bearing fibrin-binding moieties.
The amino acid sequence data from these phage isolates were sorted according to the degree of similarity and response in the fibrin ELISA assay.

[4] = molecular target: DD(E) soluble fibrin-derived polypeptide (UniProt P02671); assay: Kd against DD(E) target, 'as described above'

| Molecule | Kd [4] | other results |
| --- | --- | --- |
| CC(C)C[C@H](NC(=O)[C@@H]1CSSC[C@H](NC(=O)[C@@H]2CCCN2C(=O)[C@@H](N)CC(C)C)C(=O)N[C@@H](CC(=O)O)C(=O)N[C@@H](Cc2ccc(O)cc2)C(=O)N[C@@H](Cc2ccc(O)cc2)C(=O)NCC(=O)N[C@@H](C)C(=O)N1)C(=O)N[C@@H](CC(=O)O)C(N)=O [SEQ ID NO: 46, LPCDYYGACLD] (H-LPCDYYGACLD-NH2; disulfide 3-9) |  | Kd [1]: > 100 µM; Kd [2]: > 100 µM |
| 5 (RSCNYYGTCLH; synthetic fibrin binding peptide) [compound 5] |  | relative binding [3]: + + + |
| 10 (FSCWYSLHCHR; synthetic fibrin binding peptide) [compound 10] |  | relative binding [3]: + + + |
| WFHCPYDLCHIL (peptide, not shown: large carriers) | 1400 nM |  |
| NHGCYNSYGVPYCDYS (peptide, not shown: large carriers) | 2700 nM |  |
| RFLCYDSYYHWWCSHH (peptide, not shown: large carriers) | 10000 nM |  |
| QWECPYGLCWIQ (peptide, not shown: large carriers) | 740 nM |  |
